Target: WSTF (BAZ1B) (UniProt Q9UIG0)
UniProt Q9UIG0, sequence (Q9UIG0 whole entry): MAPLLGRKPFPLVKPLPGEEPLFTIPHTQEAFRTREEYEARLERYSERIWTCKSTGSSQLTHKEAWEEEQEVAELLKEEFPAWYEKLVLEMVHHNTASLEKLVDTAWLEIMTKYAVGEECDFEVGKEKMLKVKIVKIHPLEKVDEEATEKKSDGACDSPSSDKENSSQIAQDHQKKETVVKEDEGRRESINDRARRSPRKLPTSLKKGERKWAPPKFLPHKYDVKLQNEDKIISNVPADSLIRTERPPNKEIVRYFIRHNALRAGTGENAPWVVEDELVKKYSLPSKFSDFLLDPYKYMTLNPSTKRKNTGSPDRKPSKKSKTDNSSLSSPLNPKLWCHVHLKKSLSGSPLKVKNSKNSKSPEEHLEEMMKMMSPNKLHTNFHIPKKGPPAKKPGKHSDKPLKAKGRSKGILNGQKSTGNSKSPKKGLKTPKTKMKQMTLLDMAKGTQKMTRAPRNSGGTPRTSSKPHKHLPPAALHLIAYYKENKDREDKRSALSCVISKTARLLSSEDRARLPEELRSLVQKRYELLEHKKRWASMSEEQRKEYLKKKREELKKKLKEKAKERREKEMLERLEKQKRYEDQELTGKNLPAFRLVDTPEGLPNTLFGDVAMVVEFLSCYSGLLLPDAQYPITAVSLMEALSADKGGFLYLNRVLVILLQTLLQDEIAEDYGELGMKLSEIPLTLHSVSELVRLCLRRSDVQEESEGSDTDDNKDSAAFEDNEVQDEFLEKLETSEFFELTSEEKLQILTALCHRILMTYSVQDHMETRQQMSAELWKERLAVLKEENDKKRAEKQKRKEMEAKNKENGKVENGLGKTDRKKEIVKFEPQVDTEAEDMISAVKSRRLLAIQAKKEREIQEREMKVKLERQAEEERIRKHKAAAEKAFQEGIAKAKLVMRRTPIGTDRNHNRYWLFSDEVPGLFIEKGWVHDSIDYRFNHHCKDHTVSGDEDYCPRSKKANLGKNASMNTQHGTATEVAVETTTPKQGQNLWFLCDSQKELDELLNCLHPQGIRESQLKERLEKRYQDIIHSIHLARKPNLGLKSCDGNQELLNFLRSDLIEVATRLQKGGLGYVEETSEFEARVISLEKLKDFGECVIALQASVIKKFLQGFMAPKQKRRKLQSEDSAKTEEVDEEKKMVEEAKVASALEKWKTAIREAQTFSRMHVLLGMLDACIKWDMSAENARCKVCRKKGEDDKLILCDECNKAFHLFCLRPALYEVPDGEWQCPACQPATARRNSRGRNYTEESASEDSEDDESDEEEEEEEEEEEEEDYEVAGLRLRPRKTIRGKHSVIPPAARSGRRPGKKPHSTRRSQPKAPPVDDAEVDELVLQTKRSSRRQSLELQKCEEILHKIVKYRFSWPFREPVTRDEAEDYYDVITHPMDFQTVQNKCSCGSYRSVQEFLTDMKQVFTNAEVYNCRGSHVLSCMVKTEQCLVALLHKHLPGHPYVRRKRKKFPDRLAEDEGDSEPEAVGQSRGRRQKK

JMJD6
level of WSTF hydroxylation (Western blot with Ab1, MCF-7 nucleoprotein): after JMJD6 knockdown or mutation, the level of WSTF hydroxylation was significantly reduced

— patent publication US20240133890A1
